According to patent US20180037631A1 (Bristol-Myers Squibb, published 2018):
Numbering of substitutions follows the chain as printed. In names and notes the source's numbering stands. Several values for one entry are separate records, joined by “and”; a condition that tells them apart may be missing. Equal values may be shown once. Read-outs that look alike come from different tables or passages of the source. One block for each binder: values may come before it.

How the values were obtained:
[1] = target: T1, EGFR on the surface of human tumour cells (A431, H292) (human, UniProt P00533 25-1210); test: cell-based or functional assay
[2] = target: T2, IGF-IR on human tumour cells (H292, MCF-7, RH41) (human, UniProt P08069 31-1367); test: cell-based or functional assay
[3] = target: T3, Recombinant human EGFR-Fc (aa 1-645 of the extracellular domain of human EGFR fused to human Fc) (human, UniProt P00533 25-645)
T3 construct: range 1-645; bought from R&D Systems; also called EGFR645-Fc; EGFR-Fc (HER-1); not shown: human Fc

[4] = target: T4, IGF1R-Fc (extracellular domain of human IGF1R aa 1-932 fused to hinge and constant regions of human IgG1) (human, UniProt P08069 31-932)
T4 construct: range 1-932; made in house by transient transfection, purified on Protein A; also called IGF-IR-Fc; not shown: hinge and constant regions of human IgG1

[5] = target: T1, EGFR on the surface of human tumour …
[6] = target: T1, EGFR on the surface of human tumour …; test: cell-based or functional assay; remark: listed apart in the source
[7] = target: T3, Recombinant human EGFR-Fc (aa 1-645 of …); test: SPR Biacore
[8] = target: T4, IGF1R-Fc (extracellular domain of human …); test: SPR Biacore
[9] = target: T4, IGF1R-Fc (extracellular domain of human …); test: SPR Biacore, IGF1R-Fc
[10] = target: T1, EGFR on the surface of human tumour …; test: cell-based or functional assay; remark: listed apart in the source
[11] = target: T2, IGF-IR on human tumour cells (H292, …); test: cell-based or functional assay; remark: listed apart in the source
[12] = target: T3, Recombinant human EGFR-Fc (aa 1-645 of …); test: SPR Biacore, EGFR645-Fc
[13] = target: T4, IGF1R-Fc (extracellular domain of human …); test: SPR Biacore, IGF1R-Fc; against I1-GS10-E5 pegylated
[14] = target: T3, Recombinant human EGFR-Fc (aa 1-645 of …); test: SPR Biacore, EGFR645-Fc; against I1-GS10-E5 Pegylated

IC50, EGF-induced EGFR phosphorylation, A431 cells, In Cell Western [1]: 61 nM | IC50, EGF-induced ERK phosphorylation, A431 cells, In Cell Western [1]: 49 nM | IC50, EGF-stimulated EGFR phosphorylation, H292 cells, ELISA [1]: 16 nM | IC50, IGF1-stimulated IGFR phosphorylation, H292 cells, ELISA [2]: 0.5 nM | Kd [3]: 7.65 nM | Kd [4]: 1.19 nM | IC50 [5]: 93.8 nM
B2: E105-GS10-I1 pegylated (designed binder)
chain: MGVSDVPRDLEVVAATPTSLLISWDAPTSRYQYYRITYGETGGNSPVQEFTVPGGLSTATISGLKPGVDYTITVYAVTDYKPHADGPHTYHESPISINYRTEIDKGSGSGSGSGSGSGSGSGSGSVSDVPRDLEVVAATPTSLLISWSARLKVARYYRITYGETGGNSPVQEFTVPKNVYTATISGLKPGVDYTITVYAVTRFRDYQPISINYRTEIDKPCQHHHHHH
modifications: chain 1 pos 221: Cys carrying a maleimide-linked 40 kDa branched PEG, written C
notes: lower row of the two named E105-GS10-I1 pegylated

% inhibition of EGFR phosphorylation at 100 nM binder, cell-based assay [6]: 91.7%
B5: E96 (designed binder)
10Fn3 domain: MGVSDVPRDLEVVAATPTSLLISWASNRGTYQYYRITYGETGGNSPVQEFTVPGGVSTATISGLKPGVDYTITVYAVTDAFNPTTHEYNYFTTPISINYRTEIDKPSQ

% inhibition of EGFR phosphorylation at 100 nM binder, cell-based assay [6]: 89.3%
B7: E97 (designed binder)
10Fn3 domain: MGVSDVPRDLEVVAATPTSLLISWLPGKLRYQYYRITYGETGGNSPVQEFTVPHDLRTATISGLKPGVDYTITVYAVTDYKPHADGPHTYHESPISINYRTEIDKPSQ

% inhibition of EGFR phosphorylation at 100 nM binder, cell-based assay [6]: 75.8%
B8: E98 (designed binder)
10Fn3 domain: B7 10Fn3 domain with L25D, P26A, G27P, K28T, L29S, H54G, D55G, L56V, Y80H, S93Y

IC50, EGF-induced EGFR phosphorylation, A431 cells, In Cell Western [1]: 61 nM | IC50, EGF-induced ERK phosphorylation, A431 cells, In Cell Western [1]: 54 nM | IC50, EGF-stimulated EGFR phosphorylation, H292 cells, ELISA [1]: 10 nM | IC50, IGF1-stimulated IGFR phosphorylation, H292 cells, ELISA [2]: 0.4 nM | Kd [3]: 24.2 nM | Kd [4]: 0.96 nM | IC50 [5]: 43.8 nM
B10: E96-GS10-I1 pegylated (designed binder)
E/I tandem 10Fn3 chain: MGVSDVPRDLEVVAATPTSLLISWASNRGTYQYYRITYGETGGNSPVQEFTVPGGVSTATISGLKPGVDYTITVYAVTDAFNPTTHEYNYFTTPISINYRTEIDKGSGSGSGSGSGSGSGSGSGSVSDVPRDLEVVAATPTSLLISWSARLKVARYYRITYGETGGNSPVQEFTVPKNVYTATISGLKPGVDYTITVYAVTRFRDYQPISINYRTEIDKPCQHHHHHH
modifications: Cys of the C-terminal Cys tail conjugated to 40 kDa branched PEG

More lines, now with the values behind:

B1: E105-GS10-I1 pegylated (designed binder)
E/I tandem 10Fn3 chain: B2 chain
modifications: Cys of the C-terminal Cys tail conjugated to 40 kDa branched PEG
IC50, EGF-induced EGFR phosphorylation, A431 cells, In Cell Western [1]: 56 nM | IC50, EGF-induced ERK phosphorylation, A431 cells, In Cell Western [1]: 61 nM | IC50, EGF-stimulated EGFR phosphorylation, H292 cells, ELISA [1]: 15 nM | IC50, IGF1-stimulated IGFR phosphorylation, H292 cells, ELISA [2]: 0.5 nM | Kd [3]: 9.28 nM | Kd [4]: 1.35 nM | IC50 [5]: 75 nM

B3: E5-GS10-I1 pegylated (designed binder)
E/I tandem 10Fn3 chain: B2 chain with D25W, T28V, S29D, G54R, G55D, L56V, S57Y
modifications: Cys of the C-terminal Cys tail conjugated to 40 kDa branched PEG
IC50, IGF1-stimulated IGFR phosphorylation, H292 cells, ELISA [2]: 0.4 nM | Kd [4]: 1.16 nM

B4: I1-GS10-E112 pegylated (designed binder)
I/E tandem 10Fn3 chain: MGVSDVPRDLEVVAATPTSLLISWSARLKVARYYRITYGETGGNSPVQEFTVPKNVYTATISGLKPGVDYTITVYAVTRFRDYQPISINYRTEIDKGSGSGSGSGSGSGSGSGSGSVSDVPRDLEVVAATPTSLLISWDAGAVTYQYYRITYGETGGNSPVQEFTVPGGVRTATISGLKPGVDYTITVYAVTDYKPHADGPHTYHEYPISINYRTEIDKPCQHHHHHH
modifications: Cys of the C-terminal Cys tail conjugated to 40 kDa branched PEG
IC50, IGF1-stimulated IGFR phosphorylation, H292 cells, ELISA [2]: 0.3 nM

B6: E85-GS10-I1 pegylated (designed binder)
E/I tandem 10Fn3 chain: MGVSDVPRDLEVVAATPTSLLISWTQGSTHYQYYRITYGETGGNSPVQEFTVPGMVYTATISGLKPGVDYTITVYAVTDYFDRSTHEYKYRTTPISINYRTEIDKGSGSGSGSGSGSGSGSGSGSVSDVPRDLEVVAATPTSLLISWSARLKVARYYRITYGETGGNSPVQEFTVPKNVYTATISGLKPGVDYTITVYAVTRFRDYQPISINYRTEIDKPCQHHHHHH
modifications: Cys of the C-terminal Cys tail conjugated to 40 kDa branched PEG
IC50, EGF-induced EGFR phosphorylation, A431 cells, In Cell Western [1]: 15 nM | IC50, EGF-induced ERK phosphorylation, A431 cells, In Cell Western [1]: 15 nM | IC50, EGF-stimulated EGFR phosphorylation, H292 cells, ELISA [1]: 4 nM | IC50, IGF1-stimulated IGFR phosphorylation, H292 cells, ELISA [2]: 0.3 nM | Kd [3]: 4.76 nM | Kd [4]: 0.75 nM | IC50 [5]: 65.9 nM

B9: E90-GS10-I1 pegylated (designed binder)
E/I tandem 10Fn3 chain: MGVSDVPRDLEVVAATPTSLLISWYWEGLPYQYYRITYGETGGNSPVQEFTVPRDVNTATISGLKPGVDYTITVYAVTDWYNPDTHEYIYHTIPISINYRTEIDKGSGSGSGSGSGSGSGSGSGSVSDVPRDLEVVAATPTSLLISWSARLKVARYYRITYGETGGNSPVQEFTVPKNVYTATISGLKPGVDYTITVYAVTRFRDYQPISINYRTEIDKPCQHHHHHH
modifications: Cys of the C-terminal Cys tail conjugated to 40 kDa branched PEG
IC50, EGF-induced EGFR phosphorylation, A431 cells, In Cell Western [1]: 65 nM | IC50, EGF-induced ERK phosphorylation, A431 cells, In Cell Western [1]: 63 nM | IC50, EGF-stimulated EGFR phosphorylation, H292 cells, ELISA [1]: 10 nM | IC50, IGF1-stimulated IGFR phosphorylation, H292 cells, ELISA [2]: 0.4 nM | Kd [3]: 13.5 nM | Kd [4]: 1.5 nM | IC50 [5]: 69.1 nM

B11: I1-GSGCGS8-E5 pegylated (designed binder)
chain: MGVSDVPRDLEVVAATPTSLLISWSARLKVARYYRITYGETGGNSPVQEFTVPKNVYTATISGLKPGVDYTITVYAVTRFRDYQPISINYRTEIEKGSGCGSGSGSGSGSGSGSGSVSDVPRDLEVVAATPTSLLISWWAPVDRYQYYRITYGETGGNSPVQEFTVPRDVYTATISGLKPGVDYTITVYAVTDYKPHADGPHTYHESPISINYRTEHHHHHH
modifications: PEG on the Cys of the GSGCGS8 linker
notes: alternative clone of I1-GS10-E5 pegylated; tail of first monomer EIEK (D to E); also called I1-GSGCGS8-E5(3)
Kd [7]: 4 nM | Kd [8]: 0.29 nM | Kd [9]: 0.29 nM | koff [9]: 0.000245 s⁻¹ | kon [9]: 852000 M⁻¹ s⁻¹ | pEGFR IC50 [10]: 19.8 nM | pERK IC50 [10]: 8 nM | pIGFR IC50 [11]: 1.4 nM | Kd [12]: 4 nM | koff [12]: 0.000118 s⁻¹ | kon [12]: 29400 M⁻¹ s⁻¹ | ΔKd (fold) [13]: 0.9 fold | Δka (fold) [13]: 0.8 fold | Δkd (fold) [13]: 1.1 fold | ΔKd (fold) [14]: 0.7 fold | Δka (fold) [14]: 1 fold | Δkd (fold) [14]: 0.6 fold

B12: I1(S91C)-GS10-E5 pegylated (designed binder)
chain: B11 chain with S87C, C100S
modifications: PEG on Cys at position 91 of I1 (position of SEQ ID NO: 1)
notes: also called I1(S91C)-GS10-E5(7)
Kd [7]: 17 nM | Kd [8]: 7.16 nM | Kd [9]: 7.16 nM | koff [9]: 0.000589 s⁻¹ | kon [9]: 82200 M⁻¹ s⁻¹ | pEGFR IC50 [10]: 22.7 nM | pERK IC50 [10]: 15 nM | pIGFR IC50 [11]: 6.2 nM | Kd [12]: 17 nM | koff [12]: 0.000334 s⁻¹ | kon [12]: 19600 M⁻¹ s⁻¹ | ΔKd (fold) [13]: 0.04 fold | Δka (fold) [13]: 0.1 fold | Δkd (fold) [13]: 0.4 fold | ΔKd (fold) [14]: 0.2 fold | Δka (fold) [14]: 0.7 fold | Δkd (fold) [14]: 0.2 fold

B13: I1-GS10-E5 pegylated without the 6HIS tag (designed binder)
chain: B11 chain with E95D, C100S, H217I, H218D, H219K, H220P, H221C, H222Q
modifications: PEG on the Cys of the C-terminal Cys tail
notes: Whether the D-to-E change in the tail of the first monomer applies to this construct is not clear; also called I1-GS10-E5 pegylated(1)
Kd [8]: 0.23 nM | Kd [9]: 0.22 nM and 0.23 nM | koff [9]: 0.000288 s⁻¹ and 0.000276 s⁻¹ | kon [9]: 1.28e+06 M⁻¹ s⁻¹ and 1.22e+06 M⁻¹ s⁻¹ | pEGFR IC50 [10]: 30 nM | pERK IC50 [10]: 11 nM | pIGFR IC50 [11]: 1.2 nM | ΔKd (fold) [13]: 1.1 fold | Δka (fold) [13]: 1.2 fold | Δkd (fold) [13]: 0.9 fold

B14: I1(S62C)-GS10-E5 pegylated (designed binder)
chain: B11 chain with S62C, C100S
modifications: PEG on Cys at position 62 of I1 (position of SEQ ID NO: 1)
notes: also called I1(S62C)-GS10-E5(5)
Kd [7]: 8.7 nM | Kd [8]: 0.7 nM | Kd [9]: 0.7 nM | koff [9]: 0.000234 s⁻¹ | kon [9]: 334000 M⁻¹ s⁻¹ | pEGFR IC50 [10]: 21 nM | pERK IC50 [10]: 10 nM | pIGFR IC50 [11]: 1.9 nM | Kd [12]: 8.7 nM | koff [12]: 0.000199 s⁻¹ | kon [12]: 22800 M⁻¹ s⁻¹ | ΔKd (fold) [13]: 0.4 fold | Δka (fold) [13]: 0.3 fold | Δkd (fold) [13]: 1.1 fold | ΔKd (fold) [14]: 0.3 fold | Δka (fold) [14]: 0.8 fold | Δkd (fold) [14]: 0.4 fold
